For 1 substance, stoichiometry N results are on record in doi:10.1101/2024.07.10.601956.

Usually stoichiometry N stands for a count of units in the complex or per binding partner.

In this assay the target is Synthetic Mtln protein (UniProt Q8NCU8). In words: mass photometry.

With “Synthetic Mtln protein (from UniProt Q8NCU8 1-56) (natural protein)”, the stoichiometry N stood at 6.
